In experiment [1] the target is T1, human NgR1 alanine mutant 163 (human, UniProt Q9BZR6 27-473).
T1 sequence: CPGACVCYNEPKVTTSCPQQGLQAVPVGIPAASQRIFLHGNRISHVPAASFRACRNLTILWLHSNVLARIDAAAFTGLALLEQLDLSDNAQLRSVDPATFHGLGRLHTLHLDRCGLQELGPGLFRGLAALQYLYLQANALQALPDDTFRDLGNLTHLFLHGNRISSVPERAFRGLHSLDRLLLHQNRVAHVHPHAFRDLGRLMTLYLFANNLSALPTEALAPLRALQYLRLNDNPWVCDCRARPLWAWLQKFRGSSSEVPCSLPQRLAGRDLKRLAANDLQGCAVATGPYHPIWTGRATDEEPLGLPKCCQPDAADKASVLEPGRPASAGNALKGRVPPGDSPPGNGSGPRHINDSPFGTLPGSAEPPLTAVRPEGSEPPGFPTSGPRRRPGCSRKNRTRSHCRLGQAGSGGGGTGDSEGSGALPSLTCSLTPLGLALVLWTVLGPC
The experiment in a line: AP-ligand binding, COS-7.

Experiment [2] addresses T2, human NgR1 alanine mutant 133, 136 (human, UniProt Q9BZR6 27-473).
T2 sequence: T1 sequence with H107A, H110A, A137D
The experiment in a line: AP-ligand binding, COS-7.

Experiment [3] has as its target T3, human NgR1 alanine mutant 158, 160 (human, UniProt Q9BZR6 27-473).
T3 sequence: T1 sequence with Y132A, Y134A, A137D
Briefly: AP-ligand binding, COS-7.

In experiment [4] the target is T4, human NgR1 alanine mutant 182, 186 (human, UniProt Q9BZR6 27-473).
T4 sequence: T1 sequence with A137D, H156A, H160A
The experiment in a line: AP-ligand binding, COS-7.

The target in experiment [5] is T5, human NgR1 alanine mutant 232, 234 (human, UniProt Q9BZR6 27-473).
T5 sequence: T1 sequence with A137D, Y206A, F208A
Briefly: AP-ligand binding, COS-7.

The target of experiment [6] is T6, human NgR1 alanine mutant 82, 179 (human, UniProt Q9BZR6 27-473).
T6 sequence: T1 sequence with N56A, A137D, N153A
Briefly: AP-ligand binding, COS-7.

Another experiment deals with COS-7 cells. Briefly: Fibroblast spreading assay on dried GST fusion protein. It counts as cell-based. The conditions noted are these: GST fusion protein presented as dried substrate. The protocol:
FIG. 2A. Effects of Amino-Nogo fragments on fibroblast spreading and neurite outgrowth. Different effects of Amino-Nogo fragments on fibroblast spreading. COS-7 cells were allowed to attach and spread on slides with spots coated with 50 ng of dried GST fusion protein as indicated and stained for F-actin. GST-A: fusion protein of GST and A fragment (FIG. 1) of Amino-Nogo. GST-A, GST-B, GST-Δ20, GST-B4 and GST-B4C: fusion protein of GST and A, B, Δ20, B4 or B4C fragment (FIG. 1) of Amino-Nogo, respectively.
FIG. 2B. COS-7 cell area for experiments as in (A) was measured and plotted.
FIG. 2C. COS-7 cells were allowed to attach and spread on 96 well dishes coated with dried GST fusion proteins as indicated. Number of attached cells were counted and plotted as a function of the amount of various proteins dried per well in a 96 well dish.
It has been recognized that the Amino-Nogo-A protein inhibits non-neuronal cell spreading and axonal outgrowth when the protein is substrate bound (Chen, M. S., et al., Nature 403:434-439 (2000); Fournier, A. E., et al., Nature 409:341-346 (2001)). […] The later domain has been termed Δ20. To determine whether the NgR-interacting aa of Amino-Nogo-A described in Example 1 regulate cell spreading and axonal outgrowth, various fragments were expressed as GST fusion proteins and purified from E. coli. To generate GST fusion proteins, amino Nogo fragments were cloned in pGEX2T (Amersham Pharmacia). Native and soluble GST fusion proteins were expressed and purified as described (GrandPre, T., et al., Nature 403:439-444 (2000)). COS-7 binding assays were done as described (Fournier, A. E., et al., Nature 409:341-346 (2001)). Bound AP to COS-7 cells was measured using NIH image software. Fibroblast spreading and cDRG outgrowth assay were done as described (Fournier, A. E., et al., Nature 409:341-346 (2001)) with some modifications. Briefly, 50 μl of purified GST fusion protein or peptides diluted in PBS was pipetted into polylysine precoated 96 well plates (Becton Dickson Biocoat plates) and dried overnight at room temperature. […]

The next experiment concerns E13 chick DRG neurons. The experiment in a line: cDRG neurite outgrowth assay. Type of experiment: cell-based. The conditions noted are these: substrate coated with GST fusion protein. The method, then:
FIG. 2D. Differential effects of Amino-Nogo fragments on neurite outgrowth. Dissociated neurons from E13 chick DRGs were plated on 96 well dishes coated with lpmol protein per well and stained for neurofilament localization.
FIG. 2E. Neurite length per neuron were measured and plotted as percentage of PBS control with increasing concentration of dried protein for experiment described in […].
FIG. 6C. B24/32 peptide inhibits neurite outgrowth. Dissociated neurons from E13 chick DRG were plated onto 96 well dishes coated with 500 pmol of dried peptides as indicated and stained for neurofilament localization.
FIG. 6D. Neurite length per neuron was measured and plotted as percentage of PBS control for experiments as in (C).
It has been recognized that the Amino-Nogo-A protein inhibits non-neuronal cell spreading and axonal outgrowth when the protein is substrate bound (Chen, M. S., et al., Nature 403:434-439 (2000); Fournier, A. E., et al., Nature 409:341-346 (2001)). […] The later domain has been termed Δ20. To determine whether the NgR-interacting aa of Amino-Nogo-A described in Example 1 regulate cell spreading and axonal outgrowth, various fragments were expressed as GST fusion proteins and purified from E. coli. To generate GST fusion proteins, amino Nogo fragments were cloned in pGEX2T (Amersham Pharmacia). Native and soluble GST fusion proteins were expressed and purified as described (GrandPre, T., et al., Nature 403:439-444 (2000)). COS-7 binding assays were done as described (Fournier, A. E., et al., Nature 409:341-346 (2001)). Bound AP to COS-7 cells was measured using NIH image software. Fibroblast spreading and cDRG outgrowth assay were done as described (Fournier, A. E., et al., Nature 409:341-346 (2001)) with some modifications. Briefly, 50 μl of purified GST fusion protein or peptides diluted in PBS was pipetted into polylysine precoated 96 well plates (Becton Dickson Biocoat plates) and dried overnight at room temperature. For fibroblast spreading assay, subconfluent COS-7 cells were then plated for 1 hour in serum containing medium before fixation and staining with rho damine-phalloidin.
The same GST-Amino-Nogo proteins were tested for their ability to reduce neurite outgrowth from chick E13 DRG neurons. For cDRG outgrowth assay, dissociated E13 cDRG neurons were plated for 6 hours before fixation. […] Cell area, number of attached cells and neurite length were measured using the Imageexpress machine and software (Axon Instrument).
We reasoned that fusing the 24 aa segment of Amino-Nogo-A to NEP32 antagonist peptide might create a high affinity antagonist with a potency similar to the binding of AP-B4C-66 to NgR. […] Cell area, number of attached cells and neurite length were measured using the linageexpress machine and software (Axon Instrument).

Where a chain is given by its changes, count along the chain named. Names and notes keep the numbering of the source.

B1: AP-Nogo-66 (ligand, UniProt Q9NQC3 1055-1120, looked up)
chain: RIYKGVIQAIQKSDEGHPFRAYLESEVAISEELVQKYSNSALGHVNCTIKELRRLFLVDDLVDSLK
notes: domain: Nogo-66; construct described elsewhere (Fournier 2001); also called AP-Ng66; Ng66; not shown: alkaline phosphatase (AP); construct described elsewhere
On to B1, for which the binding result in experiment [1], in experiment [2], in experiment [3], in experiment [4], in experiment [5] and in experiment [6] was “no binding” throughout.

B2: AP-fused Amino-Nogo fragment B4C (a.a. 950-1018) (ligand)
chain: LLPPDVSALATQAEIESIVKPKVLVKEAEKKLPSDTEKEDRSPSAIFSAELSKTSVVDLLYWRDIKKTG
notes: also called AmNg B4C; AP-B4C; not shown: alkaline phosphatase (AP), vector pcAP6
B2: the binding result in experiment [1], in experiment [2], in experiment [3], in experiment [4], in experiment [5] and in experiment [6] was “no binding” throughout.

B3: B fragment of Amino-Nogo: fusion protein of GST and B fragment of Amino-Nogo (protein, UniProt Q9NQC3 622-1018, looked up, fragment)
chain: SAVPSAGASVIQPSSSPLEASSVNYESIKHEPENPPPYEEAMSVSLKKVSGIKEEIKEPENINAALQETEAPYISIACDLIKETKLSAEPAPDFSDYSEMAKVEQPVPDHSELVEDSSPDSEPVDLFSDDSIPDVPQKQDETVMLVKESLTETSFESMIEYENKEKLSALPPEGGKPYLESFKLSLDNTKDTLLPDEVSTLSKKEKIPLQMEELSTAVYSNDDLFISKEAQIRETETFSDSSPIEIIDEFPTLISSKTDSFSKLAREYTDLEVSHKSEIANAPDGAGSLPCTELPHDLSLKNIQPKVEEKISFSDDFSKNGSATSKVLLLPPDVSALATQAEIESIVKPKVLVKEAEKKLPSDTEKEDRSPSAIFSAELSKTSVVDLLYWRDIKKTG
modifications: GST fusion
As for B3, in the experiment on COS-7 cells, the “COS-7 cell attachment and spreading” value was “active”.

B4: B4: fusion protein of GST and B4 fragment (carboxyl terminal 150 aa) of Amino-Nogo (protein)
chain: SKTDSFSKLAREYTDLEVSHKSEIANAPDGAGSLPCTELPHDLSLKNIQPKVEEKISFSDDFSKNGSATSKVLLLPPDVSALATQAEIESIVKPKVLVKEAEKKLPSDTEKEDRSPSAIFSAELSKTSVVDLLYWRDIKKTG
modifications: left off: a dimerising Fc or GST
notes: fusion protein of GST and B4 fragment (carboxyl terminal 150 aa) of Amino-Nogo
For the molecule B4, the “COS-7 cell attachment and spreading” value in the experiment with COS-7 cells is given as “do not alter COS-7 morphology”. Further, in the experiment with E13 chick DRG neurons, the “neurite outgrowth from chick E13 DRG neurons” value is “not inhibitory for axonal growth”.

(Values after patent US20090111753A1, “Nogo-A Polypeptide Fragments, Variant Nogo Receptor-1 Polypeptides, and Uses Thereof” (Yale University, priority 2004, published 2009).)
